Data on nine molecules can be found in PMC8420271 (The EMBO Journal, 2021).

The chains are these.
B8: GST-GSDMD (full-length human GSDMD) (natural protein)
chain: MGSAFERVVRRVVQELDHGGEFIPVTSLQSSTGFQPYCLVVRKPSSSWFWKPRYKCVNLSIKDILEPDAAEPDVQRGRSFHFYDAMDGQIQGSVELAAPGQAKIAGGAAVSDSSSTSMNVYSLSVDPNTWQTLLHERHLRQPEHKVLQQLRSRGDNVYVVTEVLQTQKEVEVTRTHKREGSGRFSLPGATCLQGEGQGHLSQKKTVTIPSGSTLAFRVAQLVIDSDLDVLLFPDKKQRTFQPPATGHKRSTSEGAWPQLPSGLSMMRCLHNFLTDGVPAEGAFTEDFQGLRAEVETISKELELLDRELCQLLLEGLEGVLRDQLALRALEEALEQGQSLGPVEPLDGPAGAVLECLVLSSGMLVPELAIPVVYLLGALTMLSETQHKLLAEALESQTLLGPLELVGSLLEQSAPWQERSTMSLPPGLLGNSWGEGAPAWVLLDECGLELGEDTPHVCWEPQAQGRMCALYASLALLSGLSQEPH

In experiment [1] the target is His-tagged SARS-CoV-2 nucleocapsid (SARS-CoV-2, UniProt P0DTC9 1-419). In words: pull-down.
Experiment [2] has as its target B8. In words: pull-down.
Experiment [3] deals with Myc-tagged SARS-CoV-2 nucleocapsid (SARS-CoV-2, UniProt P0DTC9 1-419). The experiment is described as follows: co-IP.

B1: GST-tagged GSDMD linker containing amino acids 270-280 (domain or fragment)
chain: HNFLTDGVPAE
Regarding B1, in experiment [1], the binding result is “binds”.

B2: GST-GSDMD truncation lacking aa 302-310 (natural protein)
chain: MGSAFERVVRRVVQELDHGGEFIPVTSLQSSTGFQPYCLVVRKPSSSWFWKPRYKCVNLSIKDILEPDAAEPDVQRGRSFHFYDAMDGQIQGSVELAAPGQAKIAGGAAVSDSSSTSMNVYSLSVDPNTWQTLLHERHLRQPEHKVLQQLRSRGDNVYVVTEVLQTQKEVEVTRTHKREGSGRFSLPGATCLQGEGQGHLSQKKTVTIPSGSTLAFRVAQLVIDSDLDVLLFPDKKQRTFQPPATGHKRSTSEGAWPQLPSGLSMMRCLHNFLTDGVPAEGAFTEDFQGLRAEVETISKELLLLEGLEGVLRDQLALRALEEALEQGQSLGPVEPLDGPAGAVLECLVLSSGMLVPELAIPVVYLLGALTMLSETQHKLLAEALESQTLLGPLELVGSLLEQSAPWQERSTMSLPPGLLGNSWGEGAPAWVLLDECGLELGEDTPHVCWEPQAQGRMCALYASLALLSGLSQEPH
As for B2, the binding result in experiment [1] is “binds”.

B3: GST-tagged GSDMD linker containing amino acids 265-284 (domain or fragment)
chain: MMRCLHNFLTDGVPAEGAFT
On to B3, for which the binding result in experiment [1] is reported as “binds”.

B4: caspase-1 p20 (C285A)-His / p10-His complex (complex)
chain 1: NPAMPTSSGSEGNVKLCSLEEAQRIWKQKSAEIYPIMDKSSRTRLALIICNEEFDSIPRRTGAEVDITGMTMLLQNLGYSVDVKKNLTASDMTTELEAFAHRPEHKTSDSTFLVFMSHGIREGICGKKHSEQVPDILQLNAIFNMLNTKNCPSLKDKPKVIIIQAARGDSPGVVWFKD
chain 2: AIKKAHIEKDFIAFCSSTPDNVSWRHPTMGSVFIGRLIEHMQEYACSCDVEEIFRKVRFSFEQPDGRAQMPTTERVTLTRCFYLFPGH
With B4, the binding result in experiment [2] was “binds”.

B5: GST-tagged GSDMD linker containing amino acids 260-290 (domain or fragment)
chain: PSGLSMMRCLHNFLTDGVPAEGAFTEDFQGL
Take B5: the binding result in experiment [1] was “binds”.

B6: GST-GSDMD truncation lacking both aa 302-310 and aa 350-368 (natural protein)
chain: MGSAFERVVRRVVQELDHGGEFIPVTSLQSSTGFQPYCLVVRKPSSSWFWKPRYKCVNLSIKDILEPDAAEPDVQRGRSFHFYDAMDGQIQGSVELAAPGQAKIAGGAAVSDSSSTSMNVYSLSVDPNTWQTLLHERHLRQPEHKVLQQLRSRGDNVYVVTEVLQTQKEVEVTRTHKREGSGRFSLPGATCLQGEGQGHLSQKKTVTIPSGSTLAFRVAQLVIDSDLDVLLFPDKKQRTFQPPATGHKRSTSEGAWPQLPSGLSMMRCLHNFLTDGVPAEGAFTEDFQGLRAEVETISKELLLLEGLEGVLRDQLALRALEEALEQGQSLGPVEPLDGPAIPVVYLLGALTMLSETQHKLLAEALESQTLLGPLELVGSLLEQSAPWQERSTMSLPPGLLGNSWGEGAPAWVLLDECGLELGEDTPHVCWEPQAQGRMCALYASLALLSGLSQEPH
For the molecule B6, the binding result in experiment [1] was “binds”.

B7: GST-GSDMD truncation lacking aa 350-368 (natural protein)
chain: MGSAFERVVRRVVQELDHGGEFIPVTSLQSSTGFQPYCLVVRKPSSSWFWKPRYKCVNLSIKDILEPDAAEPDVQRGRSFHFYDAMDGQIQGSVELAAPGQAKIAGGAAVSDSSSTSMNVYSLSVDPNTWQTLLHERHLRQPEHKVLQQLRSRGDNVYVVTEVLQTQKEVEVTRTHKREGSGRFSLPGATCLQGEGQGHLSQKKTVTIPSGSTLAFRVAQLVIDSDLDVLLFPDKKQRTFQPPATGHKRSTSEGAWPQLPSGLSMMRCLHNFLTDGVPAEGAFTEDFQGLRAEVETISKELELLDRELCQLLLEGLEGVLRDQLALRALEEALEQGQSLGPVEPLDGPAIPVVYLLGALTMLSETQHKLLAEALESQTLLGPLELVGSLLEQSAPWQERSTMSLPPGLLGNSWGEGAPAWVLLDECGLELGEDTPHVCWEPQAQGRMCALYASLALLSGLSQEPH
As to B7, the binding result in experiment [1] is given as “binds”.

As for B8, the binding result in experiment [1] is listed as “binds”.

B9: FLAG-tagged full-length GSDMD (natural protein)
chain: MGSAFERVVRRVVQELDHGGEFIPVTSLQSSTGFQPYCLVVRKPSSSWFWKPRYKCVNLSIKDILEPDAAEPDVQRGRSFHFYDAMDGQIQGSVELAAPGQAKIAGGAAVSDSSSTSMNVYSLSVDPNTWQTLLHERHLRQPEHKVLQQLRSRGDNVYVVTEVLQTQKEVEVTRTHKREGSGRFSLPGATCLQGEGQGHLSQKKTVTIPSGSTLAFRVAQLVIDSDLDVLLFPDKKQRTFQPPATGHKRSTSEGAWPQLPSGLSMMRCLHNFLTDGVPAEGAFTEDFQGLRAEVETISKELELLDRELCQLLLEGLEGVLRDQLALRALEEALEQGQSLGPVEPLDGPAGAVLECLVLSSGMLVPELAIPVVYLLGALTMLSETQHKLLAEALESQTLLGPLELVGSLLEQSAPWQERSTMSLPPGLLGNSWGEGAPAWVLLDECGLELGEDTPHVCWEPQAQGRMCALYASLALLSGLSQEPH
For the molecule B9, in experiment [3], the binding result is recorded as “binds”.
